# T1: IL-TIF (Homo sapiens, UniProt Q9GZX6)
# T1 sequence (Q9GZX6 13-179 limits assumed): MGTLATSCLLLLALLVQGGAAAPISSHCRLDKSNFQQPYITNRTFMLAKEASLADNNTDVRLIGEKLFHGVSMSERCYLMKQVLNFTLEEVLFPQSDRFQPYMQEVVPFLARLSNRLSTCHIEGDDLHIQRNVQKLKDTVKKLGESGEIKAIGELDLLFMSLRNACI
# T2: IL-TIF (Homo sapiens, UniProt Q9GZX6)
# T2 construct: made in house; host or cells: BHK cells
# T2 sequence (Q9GZX6 34-179): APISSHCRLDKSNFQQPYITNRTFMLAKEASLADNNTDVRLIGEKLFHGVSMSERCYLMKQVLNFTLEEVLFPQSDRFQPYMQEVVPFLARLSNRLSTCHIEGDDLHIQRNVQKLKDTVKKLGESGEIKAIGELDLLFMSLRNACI
# Key:
# [1] = LPS-induced endotoxemia mouse model; format: in vivo, mice
# Protocol: Briefly, six month Balb/c (CRL) female mice were injected with 25 μg LPS (Sigma) in sterile PBS intraperitoneally (IP). Serum samples were collected at 0, 1, 4, 8, 16, 24, 48 and 72 hr from groups of 8 mice for each time point. Serum samples were assayed for inflammatory cytokine levels. IL-1b, IL-6, TNFa, IL-10 and serum amyloid A protein (SAA) levels were measured using commercial ELISA kits purchased from Biosource International (Camarillo, Calif.).
# Body temperatures in a separate group of animals were monitored by surgically implanted telemetry devices over the course of the 72 hr experiment. Body temperatures in mice dropped maximally by 2° C. from 37.07° C. to 34.98° C. 30 minutes after LPS injection.
# The ability of zcytor16 treatment to effect proinflammatory indicators induced with a single 25 μg LPS dose IP in mice was tested. All samples were analyzed for SAA, IL-TIF and circulating neutrophil counts. Subsets from each group were analyzed for particular cytokine levels (1 hour samples were screened for TNF alpha, 4 hour samples were analyzed for IL-6) Animals were sacrificed at indicated time points in Table 17 below and whole blood and serum were collected and aliquoted for analysis.
# 72 B1/6 female mice (CRL) were given a single IP dose of zcytor16 as described in Table 17, below. Control mice were C57B1/6 (CRL).
# 30 minutes later, they received another IP injection of 25 μg LPS (Sigma) in 100 μl, to initiate an endotoxemia cascade.
# To assess whether zcytor16 could inhibit the SAA induction in the LPS-induced endotoxemia mouse model, mice were injected with Zcytor16, 30 minutes prior to LPS injection, as shown in Table 17 in Example 31C above.
# An ELISA to determine SAA levels in the 4 hour and 8 hour samples was performed using the Mouse SAA Immunoassay Kit (BioSource International, California) following the manufacturer's directions.
# IL-TIF [2] = target: T1, IL-TIF; assay: SAA induction by IL-TIF in mice, inhibition by zcytor16-Fc4; format: in vivo; details: 3 μg IL-TIF IP with 20-100 ug zcytor16-Fc4 IP 15 minutes before
# Protocol: To assess whether zcytor16 could inhibit the SAA induction by IL-TIF mice (female, C3H/HEJ, 8 weeks old; Jackson Labs, Bar Harbor, Me.) were divided into five groups of three animals each and treated by IP injection of proteins as shown in Table 15 below:
# The zcytor16 injections preceded the IL-TIF injection by 15 minutes. Both protein injections were given by the intraperitoneal route. A blood sample was taken from each mouse prior to treatment, then at 2 and 6 hours after treatment. Serum was prepared from each of the samples for measurement of SAA and IL-TIF.
# An ELISA was performed as described previously to determine the level of SAA in mice treated with IL-TIF and a soluble receptor for IL-TIF, zcytor16-Fc4 described herein.
# IL-TIF [3] = target: T2, IL-TIF; assay: Effect of zcytor16 on IL-TIF-induced acanthosis; format: in vivo, mice; details: for Average Acanthosis: day 8, score 0-3
# Protocol: Mice (female, C3H/HEJ, 8 weeks old; Jackson Labs, Bar Harbor, Me.) were divided into eight groups of eight animals each. IL-TIF was administered by constant infusion via mini-osmotic pumps, as described in example 32a. Alzet mini-osmotic pumps (model 2001; Alza corporation Palo Alto, Calif.) were loaded under sterile conditions with IL-TIF protein (A#601F, 0.22 mL) diluted in phosphate buffered saline (pH 7.0) to a concentration within the pump of 0.22 mg/mL for group 1-2 mice, 0.45 mg/mL for group 3-4 mice, 0.9 mg/mL for group 5-6 mice, or 0 mg/mL (diluent only) for group 7-8 mice. These pumps are designed to deliver their contents at a rate of 0.5 μl per hour over a period of 14 days. Using this nominal rate of infusion, dose levels were calculated to be […] and 0 μg/day for groups 7-8. For each pair of groups at a given dose level of IL-TIF, one of the groups was injected three times (days 1, 3, and 5) with 0.1 mg of human zcytor16 Fc protein (described herein) by the interperitoneal route. The other group was injected in the same fashion with vehicle (PBS).
# On day 8 of the study, mice were euthanized and an approximately 1 cm square sample of skin surrounding the pump area was collected from each mouse. The skin was fixed in 10% neutral buffered formalin. Formalin fixed samples of skin were embedded in paraffin, routinely processed, sectioned at 5 um and stained with hematoxylin and eosin. The tissues were microscopically examined in blinded fashion by an ACVP board certified veterinary pathologist. This study was scored in a different manner than the previous example. The number of layers in the epidermis, from stratum basalis to stratum granulosum, was determined Based on the results, the sections were scored as follows: O-normal (2-3 layers), 1-mild thickening (3-4 layers), 2-moderate thickening (4-6 layers) and 3-severe thickening (>6 layers).
molecule,measurement,setting,value
"zcytor16-Fc4: soluble receptor for IL-TIF, zcytor16 fused to Fc4; IL-TIF antagonist (protein) TQSTHESLKPQRVQFQSRNFHNILQWQPGRALTGNSSVYFVQYKIYGQRQWKNKEDCWGTQELSCDLTSETSDIQEPYYGRVRAASAGSYSEWSMTPRFTPWWETKIDPPVMNITQVNGSLLVILHAPNLPYRYQKEKNVSIEDYYELLYRVFIINNSLEKEQKVYEGAHRAVEIEALTPHSSYCVVAEIYQPMLDRRSQRSEERCVEIPEPRSSDKTHTCPPCPAPEAEGAPSVFLFPPKPKDTLMISRTPEVTCVVVDVSHEDPEVKFNWYVDGVEVHNAKTKPREEQYNSTYRVVSVLTVLHQDWLNGKEYKCKVSNKALPSSIEKTISKAKGQPREPQVYTLPPSRDELTKNQVSLTCLVKGFYPSDIAVEWESNGQPENNYKTTPPVLDSDGSFFLYSKLTVDKSRWQQGNVFSCSVMHEALHNHYTQKSLSLSPGK",effect on SAA induction,[1]; 10 ug 30 minutes prior to LPS,did not have significant effect
same,reduction of the SAA induction,"[1]; 100 ug 30 minutes prior to LPS, 4 hr and 8 hr",about 50%
same,neutrophil count in circulation,[1]; 1 hr time point,reduced neutrophil count
same,SAA levels relative to PBS injected mice,"[1]; 4 hour, 100 μg or 10 μg","dose-dependant, statistically significant reduction"
same,SAA levels relative to PBS injected mice,"[1]; 8 hour, 100m",statistically significant reduction
same,TNF-alpha and IL-6 level,"[1]; mouse, in vivo",no significant change
same,level of SAA,IL-TIF [2],reduction in the level of SAA induced by IL-TIF alone to background levels
same,effect on epidermal thickening,"IL-TIF [3]; 100 μg zcytor16 (3 injections), mice treated with 5 μg IL-TIF/day",decreased the amount of epidermal thickening
same,Average Acanthosis,IL-TIF [3]; pump 2.5 μg IL-TIF/day + 100 μg zcytor16 (3 injections),0.8
same,Average Acanthosis,IL-TIF [3]; pump 5 μg IL-TIF/day + 100 μg zcytor16 (3 injections),0.6
same,Average Acanthosis,IL-TIF [3]; pump 10 μg IL-TIF/day + 100 μg zcytor16 (3 injections),1.9
same,Average Acanthosis,IL-TIF [3]; pump Vehicle + 100 μg zcytor16 (3 injections),0.0

# Source: patent US8524227B2, “Anti-IL-TIF antibodies” (ZymoGenetics, Inc., priority 2002, dated 2013)
